Tests used:
[1] = biological target: Cytosolic domain of YscV (YscVC, residues 356-704), co-expressed with YscX and YscY (Yersinia enterocolitica); assay: crystal structure
[2] = biological target: Cytosolic domain of YscV (YscVC, residues 356-704), co-expressed with YscX and YscY (Yersinia enterocolitica); assay: SEC
[3] = biological target: Cytosolic domain of YscV (YscVC, residues 356-704), purified alone (Yersinia enterocolitica); assay: SEC; analytical SEC of YscVC alone at 10, 25 and 100 µM initial concentration, Superdex 200 10/300GL, 20 mM Tris pH 8, 150 mM NaCl; monomer to nonamer

| Substance | stoichiometry N [1] | stoichiometry N [2] | stoichiometry N [3] |
| --- | --- | --- | --- |
| Cytosolic domain of YscV (YscVC, residues 356-704), co-expressed with YscX and YscY (domain or fragment) | 9 | 9 |  |
| Cytosolic domain of YscV (YscVC, residues 356-704), purified alone (domain or fragment) |  |  | 9 |

Reference: PMC9163089
